Results published in the supplement of paper PMC10065799, “High-throughput profiling of sequence recognition by tyrosine kinases and SH2 domains using bacterial peptide display” (eLife, 2023).

Legend:
FGFR3 = FGFR3 (UniProt P22607); assay: phosphorylation enrichment, bacterial display (enrichment ratio); higher = better substrate or ligand; peptides without Tyr show the background
Jak2 = Jak2 (UniProt O60674); assay: as above
Hck = Hck (UniProt P08631); assay: as above
EPHB1 = EPHB1 (UniProt P54762); assay: as above
Chain of EPHB1 (P54762 whole entry, looked up): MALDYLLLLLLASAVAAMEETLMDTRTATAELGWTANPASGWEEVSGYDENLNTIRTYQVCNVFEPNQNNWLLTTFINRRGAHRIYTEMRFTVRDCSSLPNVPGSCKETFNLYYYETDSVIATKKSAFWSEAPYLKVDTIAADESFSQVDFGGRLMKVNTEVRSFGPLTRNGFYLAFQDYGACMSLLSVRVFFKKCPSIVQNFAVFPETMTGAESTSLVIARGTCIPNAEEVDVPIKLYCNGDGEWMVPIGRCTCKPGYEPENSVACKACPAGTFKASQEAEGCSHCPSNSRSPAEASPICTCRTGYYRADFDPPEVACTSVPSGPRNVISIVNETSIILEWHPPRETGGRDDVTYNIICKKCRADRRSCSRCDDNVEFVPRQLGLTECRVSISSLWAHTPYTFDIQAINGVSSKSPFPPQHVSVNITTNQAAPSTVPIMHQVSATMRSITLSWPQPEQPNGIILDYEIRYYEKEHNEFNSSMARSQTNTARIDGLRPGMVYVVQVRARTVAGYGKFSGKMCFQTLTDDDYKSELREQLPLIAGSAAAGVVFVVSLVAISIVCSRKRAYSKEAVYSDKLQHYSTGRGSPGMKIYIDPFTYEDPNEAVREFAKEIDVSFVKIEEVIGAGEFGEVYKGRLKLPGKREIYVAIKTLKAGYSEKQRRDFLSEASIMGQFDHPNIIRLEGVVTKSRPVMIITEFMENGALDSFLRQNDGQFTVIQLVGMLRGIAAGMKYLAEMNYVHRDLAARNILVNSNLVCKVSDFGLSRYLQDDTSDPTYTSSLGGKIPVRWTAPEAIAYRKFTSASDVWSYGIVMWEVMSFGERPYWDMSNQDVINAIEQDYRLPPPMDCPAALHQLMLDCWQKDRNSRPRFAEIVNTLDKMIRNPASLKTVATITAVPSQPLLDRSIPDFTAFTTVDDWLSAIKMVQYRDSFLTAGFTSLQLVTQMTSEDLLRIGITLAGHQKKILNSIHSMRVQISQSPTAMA

MERTK = MERTK (UniProt Q12866); assay: as above
Chain of MERTK (Q12866 whole entry, looked up): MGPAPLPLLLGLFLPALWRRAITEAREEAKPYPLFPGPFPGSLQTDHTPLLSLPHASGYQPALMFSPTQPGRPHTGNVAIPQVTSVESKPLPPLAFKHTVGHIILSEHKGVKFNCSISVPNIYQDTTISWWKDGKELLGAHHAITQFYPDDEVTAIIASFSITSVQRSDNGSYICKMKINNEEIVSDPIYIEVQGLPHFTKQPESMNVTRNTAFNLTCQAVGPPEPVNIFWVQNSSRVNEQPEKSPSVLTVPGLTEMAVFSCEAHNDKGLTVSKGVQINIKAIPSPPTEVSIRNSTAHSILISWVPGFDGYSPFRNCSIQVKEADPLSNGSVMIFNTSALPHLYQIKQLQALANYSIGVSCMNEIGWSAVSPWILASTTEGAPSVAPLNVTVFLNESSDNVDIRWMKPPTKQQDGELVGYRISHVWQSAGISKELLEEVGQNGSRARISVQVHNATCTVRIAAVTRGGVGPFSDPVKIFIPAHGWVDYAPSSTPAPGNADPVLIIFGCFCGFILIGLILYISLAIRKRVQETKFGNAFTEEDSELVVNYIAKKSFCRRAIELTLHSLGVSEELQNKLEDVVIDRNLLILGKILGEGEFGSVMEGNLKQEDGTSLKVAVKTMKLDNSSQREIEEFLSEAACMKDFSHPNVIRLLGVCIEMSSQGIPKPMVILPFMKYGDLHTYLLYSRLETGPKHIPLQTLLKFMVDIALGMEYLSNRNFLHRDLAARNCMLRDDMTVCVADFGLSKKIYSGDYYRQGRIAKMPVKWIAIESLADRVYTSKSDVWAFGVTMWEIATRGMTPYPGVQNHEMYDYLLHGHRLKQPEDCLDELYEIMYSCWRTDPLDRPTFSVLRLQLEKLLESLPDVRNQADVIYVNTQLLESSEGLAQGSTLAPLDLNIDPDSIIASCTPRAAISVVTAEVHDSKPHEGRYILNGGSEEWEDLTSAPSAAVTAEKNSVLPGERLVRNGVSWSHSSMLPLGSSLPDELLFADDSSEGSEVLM

Fes = Fes (UniProt P07332); assay: as above
Chain of Fes (P07332 whole entry, looked up): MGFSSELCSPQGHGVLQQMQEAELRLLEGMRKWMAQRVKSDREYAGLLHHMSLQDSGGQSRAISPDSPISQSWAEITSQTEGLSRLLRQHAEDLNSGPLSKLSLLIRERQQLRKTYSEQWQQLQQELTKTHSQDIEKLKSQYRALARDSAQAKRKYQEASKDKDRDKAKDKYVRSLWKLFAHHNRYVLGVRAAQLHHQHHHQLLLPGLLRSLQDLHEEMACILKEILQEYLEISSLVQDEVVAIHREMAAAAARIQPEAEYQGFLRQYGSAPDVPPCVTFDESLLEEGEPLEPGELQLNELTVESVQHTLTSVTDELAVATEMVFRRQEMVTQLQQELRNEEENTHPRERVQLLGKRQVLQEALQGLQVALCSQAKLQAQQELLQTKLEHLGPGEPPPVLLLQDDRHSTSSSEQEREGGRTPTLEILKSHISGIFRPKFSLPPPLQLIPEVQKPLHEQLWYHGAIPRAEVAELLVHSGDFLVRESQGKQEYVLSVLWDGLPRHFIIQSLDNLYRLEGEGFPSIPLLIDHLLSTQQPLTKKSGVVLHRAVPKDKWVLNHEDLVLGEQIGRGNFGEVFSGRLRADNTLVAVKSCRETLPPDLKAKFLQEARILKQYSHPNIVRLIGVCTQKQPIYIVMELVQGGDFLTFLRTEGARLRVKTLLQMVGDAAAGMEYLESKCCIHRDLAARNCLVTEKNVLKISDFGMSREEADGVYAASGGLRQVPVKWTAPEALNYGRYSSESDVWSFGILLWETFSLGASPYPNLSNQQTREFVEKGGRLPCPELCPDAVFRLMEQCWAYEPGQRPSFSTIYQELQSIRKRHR

c-Src = assay: as above
AncSZ = assay: as above
Fyn = Fyn (UniProt P06241); assay: as above
FGFR1 = FGFR1 (UniProt P11362); assay: as above
EPHB2 = EPHB2 (UniProt P29323); assay: as above
Chain of EPHB2 (P29323 whole entry, looked up): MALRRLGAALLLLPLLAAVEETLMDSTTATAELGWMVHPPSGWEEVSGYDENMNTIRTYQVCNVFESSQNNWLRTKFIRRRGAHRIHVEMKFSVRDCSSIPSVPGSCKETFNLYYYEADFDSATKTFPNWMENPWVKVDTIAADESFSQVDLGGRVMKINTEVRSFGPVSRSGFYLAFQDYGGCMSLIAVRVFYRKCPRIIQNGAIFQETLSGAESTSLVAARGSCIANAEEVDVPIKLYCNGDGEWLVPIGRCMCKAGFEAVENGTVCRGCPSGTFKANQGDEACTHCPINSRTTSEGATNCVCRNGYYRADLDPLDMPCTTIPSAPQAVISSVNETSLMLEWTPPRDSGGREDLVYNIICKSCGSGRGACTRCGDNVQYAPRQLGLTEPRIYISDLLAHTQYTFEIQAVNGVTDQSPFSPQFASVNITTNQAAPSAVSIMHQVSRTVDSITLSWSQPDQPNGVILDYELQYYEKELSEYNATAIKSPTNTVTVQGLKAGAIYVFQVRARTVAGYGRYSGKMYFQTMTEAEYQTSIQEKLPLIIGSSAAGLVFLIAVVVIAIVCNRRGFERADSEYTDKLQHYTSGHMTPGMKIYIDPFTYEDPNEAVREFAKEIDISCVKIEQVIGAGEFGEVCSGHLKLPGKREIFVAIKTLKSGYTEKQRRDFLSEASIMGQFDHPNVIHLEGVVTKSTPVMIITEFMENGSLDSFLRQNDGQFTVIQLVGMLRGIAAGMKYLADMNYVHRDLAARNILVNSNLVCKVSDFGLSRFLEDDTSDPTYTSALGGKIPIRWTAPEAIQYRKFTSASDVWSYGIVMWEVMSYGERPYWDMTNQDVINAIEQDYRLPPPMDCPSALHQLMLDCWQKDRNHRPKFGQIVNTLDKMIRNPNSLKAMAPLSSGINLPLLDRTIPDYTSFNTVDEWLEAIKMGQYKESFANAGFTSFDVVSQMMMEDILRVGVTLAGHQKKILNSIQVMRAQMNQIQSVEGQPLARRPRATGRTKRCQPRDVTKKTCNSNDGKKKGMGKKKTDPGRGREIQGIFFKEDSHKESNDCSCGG

c-Abl (mouse) = assay: as above
Fer (mouse) = assay: as above
SHP2-C SH2 = assay: SH2 binding enrichment of the phosphorylated peptide, bacterial display (enrichment ratio); higher = better substrate or ligand; peptides without Tyr show the background
c-Src SH2 = assay: as above
Grb2 SH2 = Grb2 SH2 (UniProt P62993); assay: as above
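Wherever SH2 binding enrichment of the phosphorylated peptide, bacterial display is given: peptide library displayed on the E. coli surface as eCPX fusions, selected cells deep-sequenced, score is each peptide's frequency after selection divided by its frequency in the input.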
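Wherever phosphorylation enrichment, bacterial display is given: 11-residue human phosphosite peptides and single-mutation variants displayed on the E. coli surface, counted by deep sequencing, each peptide's frequency after selection divided by its frequency in the unselected input library; frequency after pTyr selection over input frequency; kinase dosed for 20-30% of maximal phosphorylation in three min.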

Chain of FGFR3 (P22607 whole entry, looked up): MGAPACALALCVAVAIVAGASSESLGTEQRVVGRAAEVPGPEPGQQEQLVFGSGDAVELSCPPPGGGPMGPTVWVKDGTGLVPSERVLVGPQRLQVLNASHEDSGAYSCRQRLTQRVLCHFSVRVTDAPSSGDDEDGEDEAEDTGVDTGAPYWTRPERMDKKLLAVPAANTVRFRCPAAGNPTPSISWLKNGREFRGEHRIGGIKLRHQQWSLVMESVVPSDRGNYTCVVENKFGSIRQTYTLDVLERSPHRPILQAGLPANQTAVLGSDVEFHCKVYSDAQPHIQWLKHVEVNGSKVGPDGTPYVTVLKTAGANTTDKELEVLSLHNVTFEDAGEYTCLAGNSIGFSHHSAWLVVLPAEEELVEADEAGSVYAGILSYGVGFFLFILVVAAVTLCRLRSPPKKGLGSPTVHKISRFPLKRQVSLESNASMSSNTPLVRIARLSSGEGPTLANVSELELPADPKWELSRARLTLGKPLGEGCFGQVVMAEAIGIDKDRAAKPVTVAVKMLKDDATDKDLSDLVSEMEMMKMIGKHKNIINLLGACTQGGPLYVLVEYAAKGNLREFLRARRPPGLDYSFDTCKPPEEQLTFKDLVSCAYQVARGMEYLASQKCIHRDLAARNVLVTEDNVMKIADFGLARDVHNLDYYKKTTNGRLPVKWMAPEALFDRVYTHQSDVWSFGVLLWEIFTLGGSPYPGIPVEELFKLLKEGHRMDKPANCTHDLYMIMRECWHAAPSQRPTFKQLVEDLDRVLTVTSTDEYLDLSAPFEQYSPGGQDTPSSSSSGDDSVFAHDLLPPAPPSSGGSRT

| Sequence | SH2 binding enrichment (SHP2-C SH2) | SH2 binding enrichment (c-Src SH2) | SH2 binding enrichment (Grb2 SH2) | phosphorylation enrichment (FGFR3) | phosphorylation enrichment (Jak2) | phosphorylation enrichment (Hck) | phosphorylation enrichment (EPHB1) | phosphorylation enrichment (MERTK) | phosphorylation enrichment (Fes) | phosphorylation enrichment (c-Src) | phosphorylation enrichment (AncSZ) | phosphorylation enrichment (Fyn) | phosphorylation enrichment (FGFR1) | phosphorylation enrichment (EPHB2) | phosphorylation enrichment (c-Abl (mouse)) | phosphorylation enrichment (Fer (mouse)) |
| --- | --- | --- | --- | --- | --- | --- | --- | --- | --- | --- | --- | --- | --- | --- | --- | --- |
| LGRGKYSEVFE [CSNK2A1_Y50] | 0.701 | 1.44 | 0.739 | 0.805 | 0.929 | 0.768 | 0.514 | 0.753 | 1.19 | 0.704 | 1.01 | 1.19 | 0.685 | 0.798 | 0.924 | 0.478 |
| NKYTTYLPRLP [C9orf24_Y126] | 0.776 | 0.991 | 0.905 | 0.418 | 0.706 | 0.714 | 0.454 | 0.483 | 0.684 | 0.616 | 0.575 | 0.51 | 0.402 | 0.386 | 0.625 | 0.38 |
| FFNSEYGELSE [FLT4_Y1337_YF] | 0.734 | 0.468 | 0.943 | 0.728 | 1.02 | 0.791 | 0.566 | 0.399 | 1.24 | 1.25 | 1.2 | 1.19 | 0.479 | 0.567 | 0.875 | 0.533 |
| EEGENYQKGEQ [CHGB_Y173_R178Q] | 0.473 | 0.472 | 0.876 | 0.747 | 1.4 | 0.519 | 0.592 | 0.561 | 1.28 | 0.545 | 1.28 | 0.519 | 0.637 | 0.63 | 0.898 | 0.51 |
| NKFTTYLPWLP [C9orf24_Y126_R129W_YF] | 0.89 | 0.815 | 1.19 | 1.25 | 1.75 | 8.27 | 3.63 | 1.4 | 1.06 | 4.54 | 1.04 | 5.73 | 1.43 | 6.61 | 1.6 | 6.84 |
| YYSSEYHCVGG [CTSC_Y345_Y347C] | 0.576 | 0.834 | 0.726 | 9.28 | 3.05 | 2.58 | 7.69 | 8.36 | 1.04 | 3.66 | 3.84 | 2.49 | 11.5 | 8.59 | 6.69 | 1.26 |
| VTHKEYFIFLE [CAMKV_Y95_R92H] | 1.98 | 1.32 | 1.78 | 1.87 | 1.29 | 0.54 | 1.13 | 0.516 | 1.36 | 1.29 | 1.08 | 0.623 | 2.2 | 1.36 | 0.755 | 0.596 |
| AFLLLYFNDTH [BMP15_Y235] | 0.79 | 0.566 | 1.01 | 0.915 | 1.26 | 0.482 | 0.761 | 0.43 | 1.41 | 0.486 | 1.15 | 0.445 | 0.49 | 0.496 | 1.16 | 0.525 |
| AAETTYDKILK [GDNF_Y156] | 1.28 | 3.75 | 0.708 | 0.725 | 0.888 | 1.36 | 0.555 | 0.376 | 1.09 | 0.501 | 0.886 | 0.596 | 0.467 | 0.496 | 0.521 | 0.474 |
| IHHIDYYKETT [FGFR1_Y653_K656E] | 0.635 | 1.08 | 0.808 | 0.891 | 0.513 | 0.471 | 0.594 | 0.491 | 1.05 | 0.409 | 0.694 | 0.549 | 0.76 | 0.653 | 0.442 | 0.396 |
| KLPDAYEPLIL [G6PD_Y437_R439P] | 0.917 | 1.49 | 0.964 | 0.674 | 0.921 | 1.08 | 0.55 | 0.498 | 1.1 | 0.752 | 1.14 | 0.502 | 0.53 | 0.494 | 0.79 | 2.5 |
| MFRAGYDTKQE [F10_Y407_C404R] | 0.872 | 0.5 | 0.796 | 0.448 | 0.589 | 0.383 | 0.475 | 0.335 | 0.761 | 0.332 | 0.671 | 0.395 | 0.379 | 0.447 | 0.497 | 0.391 |
| EKKKYYDTKIE [CASP5_Y104] | 0.505 | 0.498 | 0.752 | 0.637 | 0.779 | 0.511 | 0.366 | 0.443 | 1.03 | 0.452 | 0.863 | 0.486 | 0.365 | 0.518 | 0.761 | 0.381 |

Now from value to sequence, other results behind:

| SH2 binding enrichment (SHP2-C SH2) | SH2 binding enrichment (c-Src SH2) | SH2 binding enrichment (Grb2 SH2) | Sequence | phosphorylation enrichment (FGFR3) | phosphorylation enrichment (Jak2) | phosphorylation enrichment (Hck) | phosphorylation enrichment (EPHB1) | phosphorylation enrichment (MERTK) | phosphorylation enrichment (Fes) | phosphorylation enrichment (c-Src) | phosphorylation enrichment (AncSZ) | phosphorylation enrichment (Fyn) | phosphorylation enrichment (FGFR1) | phosphorylation enrichment (EPHB2) | phosphorylation enrichment (c-Abl (mouse)) | phosphorylation enrichment (Fer (mouse)) |
| --- | --- | --- | --- | --- | --- | --- | --- | --- | --- | --- | --- | --- | --- | --- | --- | --- |
| 0.815 | 0.649 | 1.14 | PFTDPYFDFEI [ZC3H18_Y371_A368T_YF] | 12.4 | 2.84 | 1.17 | 0.835 | 0.898 | 1.88 | 5.82 | 2.52 | 2.06 | 16.2 | 0.64 | 1.03 | 2 |
| 0.731 | 0.339 | 0.764 | DRLANYLEKVR [KRT40_Y103_S102N] | 0.64 | 0.587 | 0.38 | 0.337 | 0.41 | 0.74 | 0.395 | 0.651 | 0.399 | 0.382 | 0.424 | 0.469 | 0.373 |
| 0.754 | 0.524 | 0.98 | HFGCVYHGTLL [MET_Y1093] | 1.19 | 1.28 | 0.9 | 1.21 | 0.637 | 1.67 | 4.11 | 1.8 | 1.08 | 1.04 | 0.991 | 1.33 | 0.967 |
| 1.01 | 0.696 | 1.16 | EQKKYYNAVKK [SCN5A_Y1495_M1498V] | 0.466 | 0.634 | 0.352 | 0.341 | 0.563 | 0.63 | 0.476 | 0.529 | 0.328 | 0.425 | 0.34 | 0.511 | 0.414 |
| 0.575 | 0.414 | 0.845 | TIQMMYGCDVG [HLA-A_Y123_I121M] | 0.987 | 1.31 | 0.501 | 0.718 | 0.408 | 1.38 | 0.513 | 1.22 | 0.525 | 0.561 | 0.555 | 0.822 | 0.532 |
| 0.772 | 0.527 | 0.847 | KFDLMYAKHAF [TUBA1A_Y399_R402H] | 0.564 | 0.805 | 0.438 | 0.521 | 0.408 | 0.987 | 0.44 | 0.794 | 0.435 | 0.397 | 0.543 | 0.573 | 1.07 |
| 0.883 | 0.515 | 0.941 | TLQVMYGCDVG [HLA-B_Y123_S121V] | 0.862 | 1.1 | 0.593 | 0.564 | 0.56 | 1.23 | 0.589 | 1.1 | 0.508 | 0.596 | 0.56 | 0.849 | 0.509 |
| 0.614 | 0.949 | 0.808 | DLDLTSIYPNI [PTEN_Y27_Y27S] | 0.78 | 0.903 | 0.478 | 0.498 | 0.516 | 0.955 | 0.53 | 0.871 | 0.506 | 0.468 | 0.582 | 0.837 | 0.425 |
| 0.604 | 0.463 | 0.884 | SLLKDYSPQLQ [OTC_Y345_T343K] | 0.999 | 0.624 | 0.504 | 0.554 | 0.443 | 0.806 | 0.469 | 0.703 | 0.6 | 0.495 | 0.525 | 0.59 | 0.489 |
| 1.14 | 0.516 | 0.9 | QKDIFYGLRSL [IGSF10_Y126_T124I] | 0.73 | 1.12 | 0.676 | 0.672 | 0.844 | 1.29 | 0.923 | 0.894 | 0.783 | 0.515 | 0.616 | 1.03 | 0.405 |
| 0.695 | 1.01 | 0.945 | KNNDGYIDYAE [MCFD2_Y135] | 0.736 | 1.01 | 0.625 | 0.538 | 0.474 | 1.13 | 0.465 | 1.17 | 0.536 | 0.606 | 0.658 | 0.656 | 0.464 |
| 0.5 | 0.435 | 0.817 | SVTCTYSPAIN [TP53_Y126_L130I] | 1.1 | 1.37 | 0.749 | 1 | 0.466 | 1.83 | 0.684 | 1.5 | 0.615 | 0.702 | 0.735 | 1.08 | 0.743 |
| 0.839 | 0.6 | 0.823 | EWLRRHLENGK [HLA-A_Y195_Y195H] | 0.552 | 0.824 | 0.409 | 0.39 | 0.34 | 0.811 | 0.331 | 0.578 | 0.302 | 0.429 | 0.481 | 0.57 | 0.34 |
| 2.05 | 2.34 | 2 | CTTIHYNFICN [TP53_Y234_M237I_YF] | 0.775 | 1.25 | 0.454 | 0.554 | 0.439 | 1.23 | 0.595 | 0.895 | 0.464 | 0.554 | 0.59 | 0.787 | 0.672 |
| 1.77 | 0.857 | 1.47 | LLLLFCVVRFC [MPZ_Y177_Y177C_YF] | 1.56 | 0.607 | 0.75 | 0.803 | 0.718 | 1.12 | 0.719 | 1.01 | 0.712 | 0.973 | 0.56 | 0.933 | 1.16 |
| 0.437 | 0.547 | 0.858 | EAESWYQTKYE [KRT75_Y342] | 0.752 | 1.07 | 0.545 | 0.641 | 0.505 | 1.21 | 0.62 | 1.15 | 0.546 | 0.491 | 0.655 | 0.686 | 0.505 |
